Two molecules from patent US8022177B2, “Peptides and calcium regulation in mammalian cells” (The Board of Trustees of the University of Illinois, priority 2005, dated 2011) can be followed below.

Values joined by “and” are separate entries in the source; they are usually repeats but may differ in a detail not shown here. Equal values may be shown once.

In the assay the target is T1, Cav3.1 (Homo sapiens, UniProt O43497).
T1 construct: expressed in transfected cells; host or cells: HEK-293, stably transfected
The assay is described as follows: Whole-cell patch clamp of Cav3.1 current in Cav3.1-HEK cells transfected with γ6, γ4, their first transmembrane domains or point mutants (Example 3). On the set-up: Activation K / Inactivation K: unit not given here. Particulars: for Peak current density: Cav3.1-HEK cells, control 48.43±2.62; for Calcium current density (unit not given): Example 2, control −48.39+/−2.6, fusion series control −46.9+/−5; for Normalized Current Density: relative to vector control (100.0%), Table 3.3. The format is cell-based. The protocol: Transfection. HEK-293 cells stably transfected with the Cav3.1 α1 subunit were transiently transfected with vectors containing GFP and γ subunits cDNA when the cultures reached 50% confluency. Lipofectamine 2000 reagent (Invitrogen) was used following manufacturer's protocol.
Electrophysiology. Whole cell Ca2+ currents were recorded at room temperature using an Axon Instruments Axopatch-1D amplifier, a Digidata 1200 interface and pClamp8.0 software about 48 hours after transfection. Cell capacitance was typically around 10 pF, but ranged from 5-40 pF. Recording micropipettes were made from borosilicate glass (2-3 Mohms tip resistance), and filled with solution contained (in mM) 130 NaCl, 10 EGTA, 2 MgCl2, 1 CaCl2, 10 HEPES, 3 Tris-ATP, and 0.3 Li2GTP or 0.3 Tris-GTP. Tyrode's solution was used as the bath solution. It contained (in mM) 137 NaCl, 1 KCl, 1 MgCl2, 0.33 NaH2PO4, 2 CaCl2, 10 HEPES. Both solutions were adjusted to pH 7.4 with NaOH and 280 mOsm with sucrose.
We determined the biophysical characteristics of Cav3.1 currents in transfected HEK-293 cells and effects of the first transmembrane domain of γ4 and γ6 on these properties. Test parameters were optimized for studying Cav3.1 current. The time constant (τ) of deactivation (τdeac) was obtained by single exponential fitting of tail currents. For Cav3.1 currents, the cells were clamped at a holding potential of −100 mV, then depolarized to −20 mV for 4 msec, and repolarized to various voltages from −120 mV to −60 mV at 10 mV interval for 150 msec to elicit tail currents.
The voltage dependence of activation was measured using tail currents. For Cav3.1 currents, the cells were clamped at a holding potential equal to −100 mV, and then depolarized briefly to a conditioning potential, varying from −90 mV to +60 mV, and finally clamped at −60 mV before inactivation. Using this protocol, all tail currents are elicited at the same driving force (at −60 mV), so the current amplitude accurately reflects the number of channels opened during the different conditioning potentials.
A series of conditioning prepulses of 500 msec were used to measure voltage dependence of inactivation in our experiments. Channels initially open and then reach steady-state inactivation during the 500 msec long prepulses. The membrane potential is stepped to a fixed test potential of −20 mV, where maximal peak current is elicited. Currents elicited at each test potential reflect how many channels are not in the inactivated state after a steady-state inactivation; that is, how many channels are available to open. The conditioning prepulse potentials were changed from −120 mV to 50 mV, and the test potential is fixed at −20 mV.
Data collection and analysis. To probe the structural features necessary for the function of γ subunits, we are using HEK-293 cell line stably transfected with Cav3.1 α1 subunit. These cells are then transiently transfected with vectors containing various chimeric, truncated or mutant gamma subunits. […] There is inherent variation in calcium current density in the HEK-Cav3.1 stable cell line likely due to differences in the batch used, passenger number, extent of cellular confluence, or for other unknown reasons. The averaged current density of each test group of cells was normalized to the mean current density of a parallel control group of cells plated from the same batch of cells and analyzed on the same day. A minimum of 5 cells (typically 7 to 10) from each group was used to calculate the mean behavior of test and control cells from each days recording. At least two independent transfections were performed for each test condition. Overall, averages were obtained from 21 control groups of cells that had been transfected with empty vector over several months. The data are pooled together to reduce the variance. […] The current density of the control cells over many months justified the pooling of data recorded from different batches of cells transfected with mutated γ subunits. […]
(In general: In patch-clamp work, channel activity is measured electrically.)

T1 sequence (O43497 whole entry): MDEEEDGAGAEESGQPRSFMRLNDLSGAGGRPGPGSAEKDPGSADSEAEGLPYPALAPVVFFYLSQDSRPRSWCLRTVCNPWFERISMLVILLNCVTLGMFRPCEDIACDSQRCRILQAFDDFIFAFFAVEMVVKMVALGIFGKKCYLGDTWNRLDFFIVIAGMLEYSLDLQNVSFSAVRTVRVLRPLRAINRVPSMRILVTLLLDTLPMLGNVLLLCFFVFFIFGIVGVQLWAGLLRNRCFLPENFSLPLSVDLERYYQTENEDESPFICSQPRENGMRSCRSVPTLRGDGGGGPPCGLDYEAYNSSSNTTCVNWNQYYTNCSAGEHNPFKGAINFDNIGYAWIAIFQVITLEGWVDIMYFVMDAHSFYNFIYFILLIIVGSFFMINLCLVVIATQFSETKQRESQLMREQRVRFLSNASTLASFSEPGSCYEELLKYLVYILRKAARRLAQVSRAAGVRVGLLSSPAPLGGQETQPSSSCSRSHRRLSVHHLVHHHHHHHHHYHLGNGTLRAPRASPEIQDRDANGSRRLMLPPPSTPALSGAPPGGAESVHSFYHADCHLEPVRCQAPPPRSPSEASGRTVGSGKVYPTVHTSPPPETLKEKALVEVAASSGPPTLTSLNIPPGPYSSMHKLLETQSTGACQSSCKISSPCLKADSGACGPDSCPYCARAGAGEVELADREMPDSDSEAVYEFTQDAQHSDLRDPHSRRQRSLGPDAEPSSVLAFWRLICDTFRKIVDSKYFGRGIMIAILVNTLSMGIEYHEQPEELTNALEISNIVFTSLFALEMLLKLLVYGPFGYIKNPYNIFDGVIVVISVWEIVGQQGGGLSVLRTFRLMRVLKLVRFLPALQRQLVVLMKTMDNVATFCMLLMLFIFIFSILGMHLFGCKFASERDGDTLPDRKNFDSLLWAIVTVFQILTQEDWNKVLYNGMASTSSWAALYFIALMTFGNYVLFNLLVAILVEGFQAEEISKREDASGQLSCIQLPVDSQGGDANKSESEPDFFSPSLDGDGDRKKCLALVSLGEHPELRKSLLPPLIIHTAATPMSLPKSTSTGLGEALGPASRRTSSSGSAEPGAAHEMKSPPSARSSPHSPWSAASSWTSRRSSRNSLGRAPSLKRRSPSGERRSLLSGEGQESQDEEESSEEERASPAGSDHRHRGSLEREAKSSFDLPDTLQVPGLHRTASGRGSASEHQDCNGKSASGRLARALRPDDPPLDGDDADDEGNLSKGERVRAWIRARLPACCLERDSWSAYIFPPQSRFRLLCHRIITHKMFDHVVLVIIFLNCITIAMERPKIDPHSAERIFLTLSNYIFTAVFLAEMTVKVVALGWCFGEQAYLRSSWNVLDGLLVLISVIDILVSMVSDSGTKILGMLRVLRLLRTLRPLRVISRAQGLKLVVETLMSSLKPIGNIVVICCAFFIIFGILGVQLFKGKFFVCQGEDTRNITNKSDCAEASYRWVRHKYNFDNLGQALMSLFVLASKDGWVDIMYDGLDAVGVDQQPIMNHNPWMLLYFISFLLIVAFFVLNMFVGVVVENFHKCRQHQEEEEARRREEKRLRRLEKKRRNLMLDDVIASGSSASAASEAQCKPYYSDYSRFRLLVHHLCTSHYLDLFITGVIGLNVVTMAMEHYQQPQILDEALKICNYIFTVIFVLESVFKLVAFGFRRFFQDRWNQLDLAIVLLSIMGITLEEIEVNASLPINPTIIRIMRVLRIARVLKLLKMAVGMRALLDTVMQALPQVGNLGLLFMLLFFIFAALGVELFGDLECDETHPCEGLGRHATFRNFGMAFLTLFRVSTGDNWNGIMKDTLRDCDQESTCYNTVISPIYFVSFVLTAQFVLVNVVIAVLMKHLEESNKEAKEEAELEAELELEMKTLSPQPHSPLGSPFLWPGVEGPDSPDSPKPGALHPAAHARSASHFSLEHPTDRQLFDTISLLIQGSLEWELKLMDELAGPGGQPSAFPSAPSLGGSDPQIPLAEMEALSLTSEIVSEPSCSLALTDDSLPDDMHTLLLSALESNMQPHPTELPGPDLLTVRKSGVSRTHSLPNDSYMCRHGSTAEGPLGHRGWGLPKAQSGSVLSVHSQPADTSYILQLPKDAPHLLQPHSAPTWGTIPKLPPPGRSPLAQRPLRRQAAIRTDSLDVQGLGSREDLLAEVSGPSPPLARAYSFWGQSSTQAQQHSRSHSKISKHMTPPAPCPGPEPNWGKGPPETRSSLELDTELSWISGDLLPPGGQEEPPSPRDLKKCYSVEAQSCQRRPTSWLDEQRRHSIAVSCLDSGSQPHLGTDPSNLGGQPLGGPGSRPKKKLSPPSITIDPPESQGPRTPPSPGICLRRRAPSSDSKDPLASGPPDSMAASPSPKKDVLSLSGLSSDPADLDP

B1: γ6L: rat calcium channel γ6 subunit, long isoform (AF361343), SEQ ID NO:48 (protein, listed as Rattus norvegicus)
chain: MMWSNFFMQEEDRRRTAVGRRRAQEQQNLGLTPEREGKIKLGLLVAIVGATLAVLAVGTEFWVELNTYKTNGSAVCEAAHLGLWKVCIKRLWQADVPAGRETCGPAELPGEANCTYFKFFTTGENAHIFQRTTKKEVNLAAAVIAVLGLTAMALGCLCVIMVLSKGAEFLLRLGAVCFGLSGLLLFVSLEVFRHSVRALLQGVNPETPPAPRLAYEYSWSLGCGVGAGLILLLGGVCFLLLTLPSWPWRSLCPKRGGPTA
On to B1, for which the Peak current density is reported as 27.85±3.32 pA/pF and the “Calcium current density (unit not given)” value is on record as −7.8+/−3.3. The “Decrease of peak current density from control” value (TM1 series, vs blank vector) worked out at 42%. Where the note is “Table 3.2”, the “Activation K” value turned out to be 11.99 ± 1.39, the “Activation V½” value was −28.12 ± 4.07 mV, the “Deactivation τ @−100 mV” value was determined as 2.22 ± 0.19 ms and the “Inactivation K” value is listed as −5.42 ± 0.34. Besides, for the setting “Table 3.2”, the “Inactivation V½” value is listed as −67.53 ± 4.81 mV, the “Inactivation τ @−20 mV” value is on record as 23.9 ± 1.6 ms and the “Time to peak @−25 mV” value is 9.03 ± 0.57. In addition, the Averaged peak current (group transfected with γ6, n=10) was −344.2±48.4 pA. For the same molecule, the “Decrease of Cav3.1 peak current density from control” value (mutant series, control 100%±4.4%) turned out to be 45%. Also, the “Normalized Current Density” value (listed as γ6) is 55.4%±5.7% and 55.4%.

B2: γ4: rat calcium channel γ4 subunit (AF361341), SEQ ID NO:47 (protein, listed as Rattus norvegicus)
chain: MVRCDRGLQMLLTTAGAFAAFSLMAIAIGTDYWLYSSAHICNGTNLTMDDGPPPRRARGDLTHSGLWRVCCIEGIYKGHCFRINHFPEDNDYDHDSSEYLLRIVRASSVFPILSTILLLLGGLCIGAGRIYSRKNNIVLSAGILFVAAGLSNIIGIIVYISSNTGDPSDKRDEDKKNHYNYGWSFYFGALSFIVAETVGVLAVNIYIEKNKELRFKTKREFLKASSSSPYSRMPSYRYRRRRSRSSSRSTEASPSRDASPVGLKITGAIPMGELSMYTLSREPLKVTTAASYSPDQDAGFLQMHDFFQQDLKEGFHVSMLNRRTTPV
For B2, the Peak current density amounted to 48.28±3.30 pA/pF; the “Calcium current density (unit not given)” value was −56.3+/−5; the “Normalized Current Density” value was 116.02%±11.4% and 116.0%. Besides, where the note is “Table 3.2”, the “Activation K” value was found to be 12.83 ± 0.79, the “Activation V peak” value was −29.44±1.89 mV, the “Activation V½” value is on record as −31.62 ± 3.24 mV and the “Deactivation τ @−100 mV” value stood at 2.20 ± 0.11 ms. Besides, under “Table 3.2”, the “Inactivation K” value is −6.04 ± 0.24, the “Inactivation V½” value is reported as −67.77 ± 1.86 mV, the “Inactivation τ @−20 mV” value is on record as 27.3 ± 1.4 ms and the “Time to peak @−25 mV” value was found to be 8.37 ± 0.39.
